The target of the assay is IscU-IscS complex (E. coli, UniProt P0A6B7;P0ACD4, biotin (site not stated)). Briefly: BLI.

The values below come from article doi:10.1101/212290 (bioRxiv, 2017).

By Kd is commonly meant the equilibrium constant for the complex coming apart.

IscU-IscS complex, sequence (P0A6B7 whole entry, chain 1 of 2): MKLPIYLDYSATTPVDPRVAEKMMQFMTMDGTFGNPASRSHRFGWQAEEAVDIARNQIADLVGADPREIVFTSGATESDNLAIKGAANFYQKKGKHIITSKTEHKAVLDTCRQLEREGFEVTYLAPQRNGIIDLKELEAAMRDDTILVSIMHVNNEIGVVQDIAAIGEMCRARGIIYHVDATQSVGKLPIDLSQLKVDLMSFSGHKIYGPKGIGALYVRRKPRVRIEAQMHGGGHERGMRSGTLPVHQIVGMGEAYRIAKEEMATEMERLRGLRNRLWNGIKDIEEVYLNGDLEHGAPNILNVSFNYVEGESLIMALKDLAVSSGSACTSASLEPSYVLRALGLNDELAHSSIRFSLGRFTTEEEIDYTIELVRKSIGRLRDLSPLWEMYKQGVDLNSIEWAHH
IscU-IscS complex, sequence (P0ACD4 2-128, chain 2 of 2): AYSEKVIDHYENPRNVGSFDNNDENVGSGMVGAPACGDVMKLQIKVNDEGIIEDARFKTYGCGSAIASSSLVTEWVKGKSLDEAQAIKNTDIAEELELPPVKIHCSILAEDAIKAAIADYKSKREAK

B1: IscX (natural protein)
chain: MGLKWTDSREIGEALYDAYPDLDPKTVRFTDMHQWICDLEDFDDDPQASNEKILEAILLVWLDEAE
modifications: most likely a mixed disulfide with beta-mercaptoethanol (+76 Da) on the majority of the protein
Turning to B1, the Kd came out at 8 ± 2 µM.
